Experimental data reported in US20030194403A1.
pIC50: −log10 of the molar value.

Molecular target: soluble epidermal growth factor receptor (EGFR), purified from A431 cells (Sigma E 3641) (human) (UniProt P00533)
Assay: ELISA, inhibition of EGF-biotin binding to immobilized EGFR (FIG. 8)

pIC50: 7.52
Substance: m225, a mouse IgG2a anti-EGFR antibody (hybridoma ATCC HB-8508)
